Measured values published in patent US20220072157.

Biological target: C3b, P01024
Sequence (P01024 whole entry, looked up): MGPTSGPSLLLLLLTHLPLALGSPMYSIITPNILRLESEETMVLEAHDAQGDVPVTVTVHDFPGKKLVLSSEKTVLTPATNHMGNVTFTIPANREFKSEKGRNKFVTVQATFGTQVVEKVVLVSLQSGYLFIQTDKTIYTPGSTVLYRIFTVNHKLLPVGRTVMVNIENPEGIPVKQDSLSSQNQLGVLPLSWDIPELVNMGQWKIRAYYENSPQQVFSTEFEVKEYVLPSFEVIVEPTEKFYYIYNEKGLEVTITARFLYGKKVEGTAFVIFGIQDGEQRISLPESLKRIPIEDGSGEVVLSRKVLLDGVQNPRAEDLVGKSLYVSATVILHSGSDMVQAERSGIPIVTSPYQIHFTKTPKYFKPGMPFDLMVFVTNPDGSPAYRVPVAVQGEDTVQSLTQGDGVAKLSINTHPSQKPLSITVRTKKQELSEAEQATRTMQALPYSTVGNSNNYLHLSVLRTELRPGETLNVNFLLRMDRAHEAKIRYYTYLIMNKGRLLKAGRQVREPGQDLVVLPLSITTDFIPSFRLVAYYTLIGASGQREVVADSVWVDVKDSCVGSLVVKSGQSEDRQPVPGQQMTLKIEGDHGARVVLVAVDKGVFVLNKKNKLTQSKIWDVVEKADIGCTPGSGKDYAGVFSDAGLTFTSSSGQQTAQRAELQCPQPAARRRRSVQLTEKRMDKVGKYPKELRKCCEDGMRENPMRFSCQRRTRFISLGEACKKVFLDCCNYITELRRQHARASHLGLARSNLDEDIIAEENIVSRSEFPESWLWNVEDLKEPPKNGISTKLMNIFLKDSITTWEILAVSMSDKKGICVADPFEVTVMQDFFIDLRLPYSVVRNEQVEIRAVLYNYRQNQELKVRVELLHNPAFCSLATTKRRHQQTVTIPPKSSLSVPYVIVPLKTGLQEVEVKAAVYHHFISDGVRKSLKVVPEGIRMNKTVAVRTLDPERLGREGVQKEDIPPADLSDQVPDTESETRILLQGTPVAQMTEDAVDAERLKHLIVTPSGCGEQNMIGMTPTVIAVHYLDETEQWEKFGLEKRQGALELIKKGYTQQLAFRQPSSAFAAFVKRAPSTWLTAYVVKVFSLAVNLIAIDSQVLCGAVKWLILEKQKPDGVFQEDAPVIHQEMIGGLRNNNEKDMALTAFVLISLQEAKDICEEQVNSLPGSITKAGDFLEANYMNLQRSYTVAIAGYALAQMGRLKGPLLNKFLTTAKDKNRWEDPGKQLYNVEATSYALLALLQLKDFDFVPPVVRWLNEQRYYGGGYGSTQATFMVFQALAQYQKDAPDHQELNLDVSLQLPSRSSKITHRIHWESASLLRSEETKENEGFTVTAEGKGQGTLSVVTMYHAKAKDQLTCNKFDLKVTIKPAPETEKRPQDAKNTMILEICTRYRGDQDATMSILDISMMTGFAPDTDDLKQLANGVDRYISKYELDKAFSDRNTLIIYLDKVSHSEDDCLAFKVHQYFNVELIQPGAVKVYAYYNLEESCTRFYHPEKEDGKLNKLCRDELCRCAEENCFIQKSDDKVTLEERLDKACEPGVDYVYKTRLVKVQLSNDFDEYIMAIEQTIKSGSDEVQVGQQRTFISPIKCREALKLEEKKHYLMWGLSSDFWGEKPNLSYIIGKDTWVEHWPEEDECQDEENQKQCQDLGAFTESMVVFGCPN

B1: Complement Factor I (CFI) (protein)
chain: KVTYTSQEDLVEKKCLAKKYTHLSCDKVFCQPWQRCIEGTCVCKLPYQCPKNGTAVCATNRRSFPTYCQQKSLECLHPGTKFLNNGTCTAEGKFSVSLKHGNTDSEGIVEVKLVDQDKTMFICKSSWSMREANVACLDLGFQQGADTQRRFKLSDLSINSTECLHVHCRGLETSLAECTFTKRRTMGYQDFADVVCYTQKADSPMDDFFQCVNGKYISQMKACDGINDCGDQSDELCCKACQGKGFHCKSGVCIPSQYQCNGEVDCITGEDEVGCAGFASVTQEETEILTADMDAERRRIKSLLPKLSCGVKNRMHIRRKRIVGGKRAQLGDLPWQVAIKDASGITCGGIYIGGCWILTAAHCLRASKTHRYQIWTTVVDWIHPDLKRIVIEYVDRIIFHENYNAGTYQNDIALIEMKKDGNKKDCELPRSIPACVPWSPYLFQPNDTCIVSGWGREKDNERVFSLQWGEVKLISNCSKFYGNRFYEKEMECAGTYDGSIDACKGDSGGPLVCMDANNVTYVWGVVSWGENCGKPEFPGVYTKVANYFDWISYHVGRPFISQYNV
  cleavage of C3b to iC3b quantified by ELISA (cofactor assay; CFI and C3b fixed, CFH or FHL1 titrated): a minimum functional CFI:CFH/FHL1 molar ratio is 1:2
